pKd: −log10 of the molar value.
What was measured:
[1] = molecular target: recombinant trimeric fragment of human SP-A1 (rfhSP-A) (human); test: other fluorescence titration; intrinsic tryptophan fluorescence of rfhSP-A, PMB added, 25°C, 5 mM Tris-HCl pH 7.4 without NaCl; apparent KD from the Hill equation
[2] = molecular target: human surfactant protein A (SP-A), native, supratrimeric (human) (UniProt Q8IWL2); test: other fluorescence titration; intrinsic tryptophan fluorescence of SP-A (15 nM) or rfhSP-A (0.3 μM), polymyxin added at increasing concentrations, 25°C, 5 mM Tris-HCl pH 7.4 with 150 mM NaCl; apparent KD from the Hill equation
[3] = molecular target: human surfactant protein A (SP-A), native, supratrimeric (human) (UniProt Q8IWL2); test: native gel or EMSA + other: electron microscopy + AUC; degree of oligomerization of isolated SP-A; electrophoresis under nondenaturing conditions, electron microscopy and analytical ultracentrifugation

pKd [1] | pKd [2] | stoichiometry N [3] | Substance
5.86 | 6.49 | – | polymyxin B (PMB) (peptide)
– | 6.59 | – | polymyxin B nonapeptide (PMBN)
– | – | > 18 | human surfactant protein A (SP-A), native, supratrimeric (from UniProt Q8IWL2 21-248) (natural protein)

— PMC9493720
